Here are results for two molecules from US11510992 (dated 2022).

The assay deals with Conjugate 45b (human, UniProt P0DOX5 203-448 = IgG part). Kind of assay: ELISA. For orientation: An ELISA detects its analyte on a solid surface through an enzyme-linked reagent.

B1: murine Fcγ RIIb (receptor, mouse, UniProt P08101 30-210, looked up)
chain: THDLPKAVVKLEPPWIQVLKEDTVTLTCEGTHNPGNSSTQWFHNGRSIRSQVQASYTFKATVNDSGEYRCQMEQTRLSDPVDLGVISDWLLLQTPQLVFLEGETITLRCHSWRNKLLNRISFFHNEKSVRYHHYSSNFSIPKANHSHSGDYYCKGSLGRTLHQSKPVTITVQGPKSSRSLP
notes: also called mouse FcγR2B/CD32b
As for B1, the binding result was “binds”.

B2: human Fcγ RIIb (receptor, UniProt P31994 43-217, looked up)
chain: TPAAPPKAVLKLEPQWINVLQEDSVTLTCRGTHSPESDSIQWFHNGNLIPTHTQPSYRFKANNNDSGEYTCQTGQTSLSDPVHLTVLSEWLVLQTPHLEFQEGETIVLRCHSWKDKPLVKVTFFQNGKSKKFSRSDPNFSIPQANHSHSGDYHCTGNIGYTLYSSKPVTITVQAP
Consider B2, for which the binding result was “binds”.
